The text below walks through data of paper PMC5858577.

In the series the target is VEGF (human recombinant VEGF165 in the cell experiments) (human, UniProt P15692-4 27-191). Nature of the series: fluorescence recovery by displacement from gold nanorod.

B1: gapmer aptamer probe (XNA)
DNA: CAATTGGGCCCGTCCGTATGGTGGGT
modifications: LNA monomers at both ends, DNA in the middle; exact positions only in Fig. 1b/Supplementary Table 1
For the molecule B1, the binding result is given as “binds”.
